Like-named read-outs stand apart in the source and are kept apart here.

Results on 5 molecules are retold here after article PMC2952845.

What all share (assay): EMSA
For orientation: In EMSA bound probe runs differently from free probe, usually more slowly.

Series [1] deals with T1, Runx1 Runt domain (CBF alpha2);CBFbeta (human?;human?, UniProt Q01196;Q13951 50-183;2-135, |).
For series [2], the target named is T1, Runx1 Runt domain (CBF alpha2);CBFbeta. This is another data set of the same source.
For series [3] the target is unchanged. The source holds these as a separate data set.
For series [4] the target is unchanged. This is another data set of the same source.

T1 sequence (Q01196 50-183, chain 1 of 2): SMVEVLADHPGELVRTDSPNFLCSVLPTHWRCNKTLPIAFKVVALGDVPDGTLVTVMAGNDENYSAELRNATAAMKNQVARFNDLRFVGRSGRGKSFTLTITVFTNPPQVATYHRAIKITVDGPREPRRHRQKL
T1 sequence (Q13951 2-135, chain 2 of 2): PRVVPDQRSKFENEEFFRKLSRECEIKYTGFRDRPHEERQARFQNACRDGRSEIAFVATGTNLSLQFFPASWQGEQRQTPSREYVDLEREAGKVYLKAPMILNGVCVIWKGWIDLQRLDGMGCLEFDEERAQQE

B1: GM450Δ452 (dsDNA)
DNA 1: AGATGTGTGGCTGCGTAGAAAC
DNA 2: AGGTTTCTACGCAGCCACACAT
For B1, the binding result in series [1] was “binds”.

B2: GM450Δ443/452 (dsDNA)
DNA 1: AGATCTCTCACTGCGTAGAAAC
DNA 2: AGGTTTCTACGCAGTGAGAGAT
Consider B2, for which the binding result in series [2] is recorded as “no binding”.

B3: WT GM450 (dsDNA)
DNA 1: AGATGTGTGGCTGCCCACAAAC
DNA 2: AGGTTTGTGGGCAGCCACACAT
For B3, in series [3], the binding result is “binds”.

B4: GM450Δ443 (dsDNA)
DNA 1: AGATCTCTCACTGCCCACAAAC
DNA 2: AGGTTTGTGGGCAGTGAGAGAT
Regarding B4, the binding result in series [1] was “binds”.

B5: Crystal palindrome (dsDNA)
DNA 1: AGATGTGCGGTCGACCGCAAAC
DNA 2: AGGTTTGCGGTCGACCGCACAT
As to B5, the binding result in series [4] is “binds”.
